Results: patent US20240391954A1, “MC4R AGONIST PEPTIDES” (The Regents of the University of Michigan, priority 2021, published 2024)
Like-named read-outs stand apart in the source and are kept apart here. Positions of bridges follow the written chain, without caps; N, C: chain ends. Non-standard residues stand in square brackets, D forms with d. Residues, ends and D or L forms follow the SMILES beside them. dDip = N[C@@H](C(=O)O)C(c1ccccc1)c1ccccc1; Phe(4-Br) = N[C@@H](Cc1ccc(Br)cc1)C(=O)O; dPhe(4-Br) = N[C@H](Cc1ccc(Br)cc1)C(=O)O; hCit = NC(=O)NCCCC[C@H](N)C(=O)O; Cit = NC(=O)NCCC[C@H](N)C(=O)O; Nle = CCCC[C@H](N)C(=O)O; Aib = CC(C)(N)C(=O)O

B1: CTX-1637 (peptide)
peptide: Ac-CGH[dF]RFC-NH2
modifications: disulfide 1-7
SMILES: CC(=O)N[C@H]1CSSC[C@@H](C(N)=O)NC(=O)[C@H](Cc2ccccc2)NC(=O)[C@H](CCCNC(=N)N)NC(=O)[C@@H](Cc2ccccc2)NC(=O)[C@H](Cc2c[nH]cn2)NC(=O)CNC1=O
B2: CTX-1202 (peptide)
peptide: {CH2CO}-[dA]H[dF]RWC-NH2
modifications: thioether N-6
SMILES: C[C@H]1NC(=O)CSC[C@@H](C(N)=O)NC(=O)[C@H](Cc2c[nH]c3ccccc23)NC(=O)[C@H](CCCNC(=N)N)NC(=O)[C@@H](Cc2ccccc2)NC(=O)[C@H](Cc2c[nH]cn2)NC1=O
B3: CTX-1607 (peptide)
peptide: Ac-R[Nle]C[Cit][dF]RWC-NH2
modifications: disulfide 3-8
SMILES: CCCC[C@H](NC(=O)[C@H](CCCNC(=N)N)NC(C)=O)C(=O)N[C@H]1CSSC[C@@H](C(N)=O)NC(=O)[C@H](Cc2c[nH]c3ccccc23)NC(=O)[C@H](CCCNC(=N)N)NC(=O)[C@@H](Cc2ccccc2)NC(=O)[C@H](CCCNC(N)=O)NC1=O
B4: CTX-1625 (peptide)
peptide: Ac-R[Nle]CH[dF]RFC-NH2
modifications: disulfide 3-8
SMILES: CCCC[C@H](NC(=O)[C@H](CCCNC(=N)N)NC(C)=O)C(=O)N[C@H]1CSSC[C@@H](C(N)=O)NC(=O)[C@H](Cc2ccccc2)NC(=O)[C@H](CCCNC(=N)N)NC(=O)[C@@H](Cc2ccccc2)NC(=O)[C@H](Cc2c[nH]cn2)NC1=O
B5: CTX-1293 (peptide)
peptide: Ac-RCGR[dF]RWC-NH2
modifications: disulfide 2-8
SMILES: CC(=O)N[C@@H](CCCNC(=N)N)C(=O)N[C@H]1CSSC[C@@H](C(N)=O)NC(=O)[C@H](Cc2c[nH]c3ccccc23)NC(=O)[C@H](CCCNC(=N)N)NC(=O)[C@@H](Cc2ccccc2)NC(=O)[C@H](CCCNC(=N)N)NC(=O)CNC1=O
B6: CTX-1257 (peptide)
peptide: Ac-RC[dA]R[dF]R[dF]C-NH2
modifications: disulfide 2-8
SMILES: CC(=O)N[C@@H](CCCNC(=N)N)C(=O)N[C@H]1CSSC[C@@H](C(N)=O)NC(=O)[C@@H](Cc2ccccc2)NC(=O)[C@H](CCCNC(=N)N)NC(=O)[C@@H](Cc2ccccc2)NC(=O)[C@H](CCCNC(=N)N)NC(=O)[C@@H](C)NC1=O
B7: CTX-1618 (peptide)
peptide: Ac-R[Nle]C[hCit][dF]RWC-NH2
modifications: disulfide 3-8
SMILES: CCCC[C@H](NC(=O)[C@H](CCCNC(=N)N)NC(C)=O)C(=O)N[C@H]1CSSC[C@@H](C(N)=O)NC(=O)[C@H](Cc2c[nH]c3ccccc23)NC(=O)[C@H](CCCNC(=N)N)NC(=O)[C@@H](Cc2ccccc2)NC(=O)[C@H](CCCCNC(N)=O)NC1=O

Assays:
human MC4R = target: T1, human MC4R (Homo sapiens, UniProt P32245); assay: split-luciferase cAMP sensor assay, agonist mode (measurement window 1), hMC4R; assay type: cell-based; details: for Emax: read-out: MC4R cAMP % max activation
T1 construct: host or cells: HEK-293 cells stably expressing the GScAMP22F split-luciferase cAMP sensor and hMC4R, G418 selection
T1 sequence (P32245 whole entry): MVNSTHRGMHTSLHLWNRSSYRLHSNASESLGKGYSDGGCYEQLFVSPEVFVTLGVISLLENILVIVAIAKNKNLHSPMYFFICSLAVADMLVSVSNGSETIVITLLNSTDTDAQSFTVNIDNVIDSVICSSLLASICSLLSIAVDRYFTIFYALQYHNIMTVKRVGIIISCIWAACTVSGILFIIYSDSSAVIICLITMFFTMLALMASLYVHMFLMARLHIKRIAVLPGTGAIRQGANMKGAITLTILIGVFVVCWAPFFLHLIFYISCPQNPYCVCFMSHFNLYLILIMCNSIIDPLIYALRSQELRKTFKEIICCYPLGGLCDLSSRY
Summary of the method: (§1)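 Live stable cell lines carrying receptor plus GloSensor cAMP22f split-luciferase, loaded with 4% D-luciferin in serum-free medium (~1% serum estimated during assay). Luminescence recorded during in-line peptide addition; direct agonist effect read in window 1, with 20 μM forskolin as normalization reference. EC50 from four-parameter sigmoid fit.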

human MC3R [1] = target: T2, human MC3R (Homo sapiens, UniProt P41968); assay: split-luciferase cAMP sensor assay, agonist mode (measurement window 1), hMC3R; assay type: cell-based; details: for Emax / EC50: agonist mode; for Emax: read-out: MC3R cAMP % max activation; for EC50: read-out: MC3R cAMP EC50
T2 construct: expressed in transfected cells; host or cells: HEK-293 cells stably expressing the GScAMP22F split-luciferase cAMP sensor (parent reporter line from Promega); MC3R clone generated in-house, G418 selection
T2 sequence (P41968 whole entry): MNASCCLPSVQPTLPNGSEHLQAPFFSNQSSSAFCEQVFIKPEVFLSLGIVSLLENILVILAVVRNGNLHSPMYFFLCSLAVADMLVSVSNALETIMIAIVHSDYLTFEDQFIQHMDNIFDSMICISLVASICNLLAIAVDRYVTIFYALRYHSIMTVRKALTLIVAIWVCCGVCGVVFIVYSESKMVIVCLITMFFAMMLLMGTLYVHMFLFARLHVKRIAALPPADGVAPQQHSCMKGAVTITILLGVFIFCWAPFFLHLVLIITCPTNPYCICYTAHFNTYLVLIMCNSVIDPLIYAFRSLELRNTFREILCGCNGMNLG
Summary of the method: as §1

human MC3R [2] = target: human MC3R (human, UniProt P41968 1-323); assay: cell-based or functional assay
Chain of human MC3R (human, UniProt P41968 1-323) (P41968 whole entry): as above

human MC4R receptor [3] = target: T3, human MC4R receptor (human, UniProt P32245 1-332); assay: cell-based or functional assay
T3 sequence (P32245 whole entry): as the sequence (P32245 whole entry) above

human MC4R receptor [4] = target: T3, human MC4R receptor; assay: cell-based or functional assay; remark: listed apart in the source
[5] = agonist mode, hMC4R stable cell line
[6] = % maximal activation, agonist mode

Row | Molecule | % max activation (human MC3R [2]) | cAMP EC50 (human MC3R [2]) | % max activation (human MC4R receptor [4]) | cAMP EC50 (human MC4R receptor [4]) | further results
1 | CC(=O)N[C@@H](CCCNC(=N)N)C(=O)N[C@H]1CSSC[C@@H](C(N)=O)NC(=O)[C@@H](C)NC(=O)[C@H](CCCNC(=N)N)NC(=O)[C@@H](Cc2ccc(Br)cc2)NC(=O)[C@H](CCCNC(=N)N)NC(=O)[C@@H](C)NC1=O [CTX-1260, Arg-cyclo(Cys-D-Ala-Arg-D-Phe(4-Br)-Arg-D-Ala-Cys)] (Ac-RC[dA]R[dPhe(4-Br)]R[dA]C-NH2; disulfide 2-8) | – | – | – | – | MC4R selectivity vs MC1R (human MC4R): 0.01; MC4R selectivity vs MC3R (human MC4R): 0.05; Emax (human MC4R; [5]): 38%; Emax (human MC3R [1]; hMC3R stable cell line): 13%
2 | CC(=O)N[C@@H](CCCNC(=N)N)C(=O)N[C@H]1CSSC[C@@H](C(N)=O)NC(=O)[C@@H](Cc2c[nH]c3ccccc23)NC(=O)[C@H](CCCNC(=N)N)NC(=O)[C@@H](C(c2ccccc2)c2ccccc2)NC(=O)[C@H](CCCNC(=N)N)NC(=O)[C@@H](C)NC1=O [CTX-1280, Arg-cyclo(Cys-D-Ala-Arg-D-Dip-Arg-D-Trp-Cys)] (Ac-RC[dA]R[dDip]R[dW]C-NH2; disulfide 2-8 (inferred)) | – | – | – | – | MC4R selectivity vs MC1R (human MC4R): 0.1; MC4R selectivity vs MC3R (human MC4R): 1.24; Emax (human MC4R; [5]): 4%; Emax (human MC3R [1]; hMC3R stable cell line): 2.6%
3 | C[C@H]1NC(=O)[C@@H](NC(=O)[C@H](CCCNC(=N)N)NC(=O)COCCOCCNC(=O)COCCOCCNC(=O)CNC(=O)CCc2ccc(I)cc2)CSSC[C@@H](C(N)=O)NC(=O)[C@@H](Cc2c[nH]c3ccccc23)NC(=O)[C@H](CCCNC(=N)N)NC(=O)[C@@H](Cc2ccc(Br)cc2)NC(=O)[C@H](CCCNC(=N)N)NC1=O [CTX-1226, Arg-cyclo(Cys-D-Ala-Arg-D-Phe(4-Br)-Arg-D-Trp-Cys)] | – | – | – | – | Emax (human MC4R; [5]): 71%; Emax (human MC3R [1]; hMC3R stable cell line): 29%
4 | CC(=O)N[C@@H](CCCNC(=N)N)C(=O)N[C@H]1CSSC[C@@H](C(N)=O)NC(=O)[C@@H](Cc2c[nH]c3ccccc23)NC(=O)[C@H](CCCNC(=N)N)NC(=O)[C@H](Cc2ccc(Br)cc2)NC(=O)[C@H](CCCNC(=N)N)NC(=O)[C@@H](C)NC1=O [CTX-1215, Arg-cyclo(Cys-D-Ala-Arg-Phe(4-Br)-Arg-D-Trp-Cys)] (Ac-RC[dA]R[Phe(4-Br)]R[dW]C-NH2; disulfide 2-8 (inferred)) | – | – | – | – | MC4R selectivity vs MC1R (human MC4R): 0.07; MC4R selectivity vs MC3R (human MC4R): 0.05; Emax (human MC4R; [5]): 56%; Emax (human MC3R [1]; hMC3R stable cell line): 2.1%; EC50 (human MC3R [1]; hMC3R stable cell line): 27 nM
5 | CCCC[C@H](NC(=O)[C@H](CCCNC(=N)N)NC(C)=O)C(=O)N[C@H]1CSSC[C@@H](C(N)=O)NC(=O)[C@H](Cc2ccccc2)NC(=O)[C@H](CCCNC(=N)N)NC(=O)[C@@H](Cc2ccc(Br)cc2)NC(=O)[C@H](CCCNC(=N)N)NC1=O [CTX-1623, Arg-Nle-cyclo(Cys-Arg-D-Phe(4-Br)-Arg-Phe-Cys)] (Ac-R[Nle]CR[dPhe(4-Br)]RFC-NH2; disulfide 3-8) | – | – | – | – | Emax (human MC4R; [6]): 73%; Emax (human MC3R [1]; % maximal activation): 62%
6 | CC(=O)N[C@@H](CCCNC(=N)N)C(=O)N[C@H]1CSSC[C@@H](C(=O)N[C@@H](CCCNC(=N)N)C(=O)N[C@@H](Cc2ccccc2)C(N)=O)NC(=O)[C@@H](Cc2c[nH]c3ccccc23)NC(=O)[C@H](CCCNC(=N)N)NC(=O)[C@@H](Cc2ccc(Br)cc2)NC(=O)[C@H](CCCNC(=N)N)NC(=O)[C@@H](C)NC1=O [CTX-1220, Arg-cyclo(Cys-D-Ala-Arg-D-Phe(4-Br)-Arg-D-Trp-Cys)-Arg-Phe] (Ac-RC[dA]R[dPhe(4-Br)]R[dW]CRF-NH2; disulfide 2-8 (inferred)) | – | – | – | – | MC4R selectivity vs MC1R (human MC4R): 1.53; MC4R selectivity vs MC3R (human MC4R): 3.82; Emax (human MC4R; [5]): 76%; Emax (human MC3R [1]; hMC3R stable cell line): 21%
7 | CC(=O)N[C@H]1CSSC[C@@H](C(N)=O)NC(=O)[C@H](Cc2c[nH]c3ccccc23)NC(=O)[C@H](CCCNC(=N)N)NC(=O)[C@@H](Cc2ccccc2)NC(=O)[C@H](Cc2c[nH]cn2)NC(=O)CNC1=O [CTX-1206, cyclo(Cys-Gly-His-D-Phe-Arg-Trp-Cys)] (Ac-CGH[dF]RWC-NH2; disulfide 1-7 (inferred)) | – | – | – | – | Emax (human MC4R; [6]): 101%; EC50 (human MC4R; HEK-293 cells stably expressing hMC4R, agonist mode, read-out: MC4R cAMP EC50): 0.52 nM; Emax (human MC3R [1]; % maximal activation): 94%; EC50 (human MC3R [1]; HEK-293 cells stably expressing hMC3R): 12 nM; MC4R selectivity vs MC3R (human MC3R [1]; MC4R versus MC3R): 23
8 | B1 | 98% | 68 nM | – | – | –
9 | B2 | 101% | 130 nM | 104% | 0.65 nM | MC4R selectivity vs MC1R (human MC4R receptor [3]): 0.89
10 | B3 | 47% | 14 nM | – | – | –
11 | B4 | – | – | 101% | 38 nM | –
12 | Ac-RC[Aib]R[dF]RWC-NH2 (disulfide 2-8) [CTX-1292] | 76% | 3.3 nM | 90% | 0.16 nM | MC4R selectivity vs MC1R (human MC4R receptor [3]): 2.46; MC4R selectivity vs MC3R (human MC4R receptor [3]): 21
13 | Ac-RCA[Cit][dF]R[dW]C-NH2 (disulfide 2-8) [CTX-1288] | 36% | 1250 nM | 87% | 77 nM | MC4R selectivity vs MC1R (human MC4R receptor [3]): 3.75; MC4R selectivity vs MC3R (human MC4R receptor [3]): 16
14 | {CH2CO}-[dA][Cit][dF]RFC-NH2 (thioether N-6) [CTX-1658] | – | > 10000 nM | – | > 10000 nM | –
15 | B5 | – | – | 87% | 0.25 nM | –
16 | {CH2CO}-[Aib][Cit][dF]RFC-NH2 (thioether N-6) [CTX-1652] | – | > 10000 nM | – | > 10000 nM | –
17 | B6 | – | 44 nM | – | – | MC4R selectivity vs MC1R (human MC4R receptor [3]): 0.02
18 | Ac-RC[Aib][Cit][dF]R[dW]C-NH2 (disulfide 2-8) [CTX-1290] | 20% | 1040 nM | 88% | 112 nM | MC4R selectivity vs MC1R (human MC4R receptor [3]): 10; MC4R selectivity vs MC3R (human MC4R receptor [3]): 9.23
19 | {CH2CO}-G[Cit][dF]RFC-NH2 (thioether N-6) [CTX-1655] | – | > 10000 nM | – | > 10000 nM | –
20 | Ac-RC[Aib][Cit][dF]RWC-NH2 (disulfide 2-8) [CTX-1289] | 21% | 17 nM | 93% | 0.6 nM | MC4R selectivity vs MC1R (human MC4R receptor [3]): 130; MC4R selectivity vs MC3R (human MC4R receptor [3]): 30
21 | B7 | 33% | 29 nM | – | – | –
